In patent US20180362645A1 one finds PAC1 EC50 (agonist activity), VPAC2 EC50 (agonist activity) and VPAC1 EC50 (agonist activity) data, which are given here for one substance.

A value given as a limit tells only on which side of the number the result lay.

Assay in all cases: cell-based or functional assay
The target of assay [1] is human pituitary adenylate cyclase-activating polypeptide type I receptor (human) (UniProt P41586).
A further assay concerns the target T1, VPAC2.
T1 sequence (P41587 whole entry, species assumed, looked up): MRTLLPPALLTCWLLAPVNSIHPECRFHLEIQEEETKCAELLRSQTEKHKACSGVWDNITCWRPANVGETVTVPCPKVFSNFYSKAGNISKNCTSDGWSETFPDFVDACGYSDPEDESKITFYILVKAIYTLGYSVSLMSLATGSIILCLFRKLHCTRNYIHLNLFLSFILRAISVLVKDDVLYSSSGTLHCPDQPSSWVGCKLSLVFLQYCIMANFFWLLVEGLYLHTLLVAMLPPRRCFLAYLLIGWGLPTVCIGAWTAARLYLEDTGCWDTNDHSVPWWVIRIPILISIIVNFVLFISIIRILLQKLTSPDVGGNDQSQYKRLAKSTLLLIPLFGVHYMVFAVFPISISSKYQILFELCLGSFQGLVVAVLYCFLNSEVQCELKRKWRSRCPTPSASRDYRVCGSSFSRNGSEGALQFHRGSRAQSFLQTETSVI

For a further assay, the target named is T2, VPAC1.
T2 sequence (P32241 whole entry, species assumed, looked up): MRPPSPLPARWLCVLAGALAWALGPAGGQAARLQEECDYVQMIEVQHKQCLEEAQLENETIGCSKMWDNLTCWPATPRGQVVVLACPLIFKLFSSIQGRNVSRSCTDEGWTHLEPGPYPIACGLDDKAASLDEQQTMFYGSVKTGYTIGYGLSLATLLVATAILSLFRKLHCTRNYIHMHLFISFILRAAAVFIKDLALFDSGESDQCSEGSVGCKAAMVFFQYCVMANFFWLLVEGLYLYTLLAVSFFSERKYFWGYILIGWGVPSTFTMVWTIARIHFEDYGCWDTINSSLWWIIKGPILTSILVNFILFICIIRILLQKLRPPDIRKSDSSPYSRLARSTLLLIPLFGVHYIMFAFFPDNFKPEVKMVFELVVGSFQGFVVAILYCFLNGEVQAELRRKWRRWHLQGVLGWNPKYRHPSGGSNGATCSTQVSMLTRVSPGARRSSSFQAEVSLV

Maxadilan, sequence (P30659 24-84 limits assumed): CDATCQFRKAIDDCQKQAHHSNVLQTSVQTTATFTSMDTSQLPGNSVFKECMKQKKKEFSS
human pituitary adenylate cyclase-activating polypeptide type I receptor (human), sequence (P41586 21-468): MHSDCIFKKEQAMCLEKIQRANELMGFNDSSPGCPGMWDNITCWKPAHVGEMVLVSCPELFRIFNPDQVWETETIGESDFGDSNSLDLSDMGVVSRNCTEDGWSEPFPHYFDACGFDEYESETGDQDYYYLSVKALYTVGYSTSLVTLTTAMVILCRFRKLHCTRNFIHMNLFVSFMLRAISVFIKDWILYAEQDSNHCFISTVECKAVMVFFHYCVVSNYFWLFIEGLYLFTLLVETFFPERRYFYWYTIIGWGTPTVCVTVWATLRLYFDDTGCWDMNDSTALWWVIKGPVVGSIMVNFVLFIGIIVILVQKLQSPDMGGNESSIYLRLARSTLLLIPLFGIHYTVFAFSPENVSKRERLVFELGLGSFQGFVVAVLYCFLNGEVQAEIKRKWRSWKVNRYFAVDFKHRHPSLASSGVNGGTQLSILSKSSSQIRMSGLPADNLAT

With “Maxadilan (from UniProt P30659 24-84) (ligand)”, the PAC1 EC50 (agonist activity) in assay [1] came out at 0.06 nM. In addition, the VPAC2 EC50 (agonist activity) with VPAC2 is over 1000 nM. This substance also registered a VPAC1 EC50 (agonist activity) with VPAC1 of over 1000 nM.
